Measured values from the supplement of paper PMC9170038.

Test system: MS2 coat protein
Assay: apparent KD of MS2 coat protein; designed switch direction (-1 OFF switch, 1 ON switch): -1; higher = weaker reporter binding
Summary of the method: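 RNA switches sharing common flanks were transcribed by stalled E. coli RNA polymerase on Illumina chips. A doubling series of SNAP-549-labelled MS2 coat protein, from 0.7 or 1.5 nM to 3 µM, was applied in Tris-HCl pH 7.5 buffer with KCl, MgCl2, BSA, DTT, tRNA and Tween-20. Each step lasted 0.8–1.5 h at the bottom of the series and 10–20 min at the top. Normalised cluster fluorescence was curve-fitted, giving apparent KD as the per-design median over clusters.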

[1] = Eterna round: R95, input ligand: FMN 200 uM
[2] = Eterna round: R95, input ligand: microRNA oligo, concentration not stated
[3] = Eterna round: R95, input ligand: none
[4] = input ligand: microRNA oligo, concentration not stated

| Sequence | apparent KD of MS2 coat protein [1] | apparent KD of MS2 coat protein [2] | apparent KD of MS2 coat protein [3] | apparent KD of MS2 coat protein (input ligand: FMN 200 uM) | apparent KD of MS2 coat protein [4] | apparent KD of MS2 coat protein (input ligand: none) |
| --- | --- | --- | --- | --- | --- | --- |
| ACAAGCUCUUUGCAUCUUAGUUUUGUUGCUUCGUAUGUAACAUGAGGAUCACCCAUGUAAGACUGAUGUCGUCUUUU [JR_SV3TOV2_Sub087] (puzzle: Sensor v3, turn-off variant 2) | 43.8 nM | 30 nM | 48.2 nM | – | – | – |
| ACAAGCUUAAAAAUCCUAAACAUGAGGAUCACCCAUGUUCGUCUUAUAAAAAUAAAAAUAAAAAACAAAAAAUAAAA [Sensor V2: 71] (Eterna round: R96, puzzle: Sensor v2, turn-off variant) | – | – | – | 39 nM | 228 nM | 39.3 nM |
| ACAAGCUUUUAGAUUUUCAACAUGAGGAUCACCCAUGUUCGUCUUAUGCUCGGGCUUGGGCGGUGUCCGGGUUUGGG [JL TOV1 3.78 sellena mod] (Eterna round: R97, puzzle: Sensor, turn-off variant 1) | – | – | – | 37.1 nM | – | 39.2 nM |
| ACAAGCUUUUUGUUCGUCUUAUACACUCCUAAGAGGACAACAUGAGGAUCACCCAUGUAACAAAGACGAACUCAUGU [Sesor Array 10 - Jieux - Sensor v3, turn-off variant 2] (puzzle: Sensor v3, turn-off variant 2) | 14.3 nM | 96.3 nM | 11.4 nM | – | – | – |
| ACACGGCGAGGAUAUACAUGAGGAUCACCCAUGUGUCGGCCGGUACGGUAGCACUAGUGUAGAAGGCGCAUUGG [EX3 #38] (Eterna round: R97, puzzle: Exclusion 3) | – | – | – | 28.1 nM | – | 31.1 nM |
| ACACUGCGAGGAUAUACAUGAGGAUCACCCAUGUAUCGGUAGUCAAGGUUAAUUUAAGGUAGAAGGCGCGUAUU [JR_Ex3_Sub007] (Eterna round: R97, puzzle: Exclusion 3) | – | – | – | 26.4 nM | – | 24 nM |
| ACAGUUCUGCAAGGAUAUCGUCCUAGUUUGUUUCGAGAAGGUGCUUUUGUUUUUUCUUUGUGUUGACAUGAGGAUCACCCAUGU [JR_ExcNG1_Sub052] (Eterna round: R96, puzzle: Exclusion NG 1) | – | – | – | 20.3 nM | 20.6 nM | 28.7 nM |
| ACAGUUCUGCAAGGAUAUCGUUCUAGUUUAGUACGAGAAGGUGCUUUAGUUUUUUCUUUGUGUUGACAUGAGGAUCACCCAUGU [JR_ExcNG1_Sub054] (Eterna round: R96, puzzle: Exclusion NG 1) | – | – | – | – | 17.5 nM | – |
| ACAUAGGUAGGAUAUCUAAGUUGAUACAUGAGGAUCACCCAUGUGUUACUCAAGAUCUACAGAGAAGGGCCUGAGG [Eternabot (L2) Solution 93] (Eterna round: R97, puzzle: Exclusion 5) | – | – | – | 19.7 nM | – | 15.3 nM |
| ACAUGAGGAUCACCCAUGUAAACAUAAUGGCUCAUGUAGAGUCAGGAUAUGCGUGGCUAACAAUCGCAGAAGGGACAAGACUGG [Deportation 29 - Jieux - Exclusion NG 3] (Eterna round: R96, puzzle: Exclusion NG 3) | – | – | – | 22.1 nM | 20.2 nM | 24.5 nM |
| ACAUGAGGAUCACCCAUGUACAGGGUUUAGUUUCAUCGUUUGAAGGAUAUACACCGUUAGUUGUCGUAGAAGGUCACAGAUUGG [JR_ExcNG3_Sub009] (Eterna round: R96, puzzle: Exclusion NG 3) | – | – | – | 153 nM | 68.2 nM | 155 nM |
| ACAUGAGGAUCACCCAUGUCCGGCUGGUCCGUCUCGGCUGUCGAGGAUAUAGCUCGGUGUCCGCGCUAGAAGGUGGGAGCUGGU [Aenatbe mod 68] (Eterna round: R96, puzzle: Exclusion NG 3) | – | – | – | 150 nM | 93.3 nM | 135 nM |
| ACAUGAGGAUCACCCAUGUCCGGCUGGUCCGUUUCGGCUGUCGAGGAUAUAGUUCGGUGUUCGCGCUAGAAGGCGGGAGCUGGC [Aenatbe mod 60] (Eterna round: R96, puzzle: Exclusion NG 3) | – | – | – | 206 nM | 68.7 nM | 114 nM |
| ACAUGAGGAUCACCCAUGUCCGGCUGGUCUGUUCCGGCUGUCGAGGAUAUAGUUCGGUGUUCGCGCUAGAAGGCGGGAGCUGGA [Aenatbe mod 52] (Eterna round: R96, puzzle: Exclusion NG 3) | – | – | – | 150 nM | 104 nM | 123 nM |
| ACAUGAGGAUCACCCAUGUCCGGCUGGUCUGUUUCGGCUGUCGAGGAUAUAGUUCGGUGUUCGCGCUAGAAGGCGGGAGCUGGC [Aenatbe mod 59] (Eterna round: R96, puzzle: Exclusion NG 3) | – | – | – | 111 nM | 56.5 nM | 82.4 nM |
| ACAUGAGGAUCACCCAUGUCCGUCUGGUCUGUCUCGGCUGUCGAGGAUAUAGCCCGGUAUCCGCGCUAGAAGGUGGGAGUCGGC [Aenatbe mod 98] (Eterna round: R96, puzzle: Exclusion NG 3) | – | – | – | 31.4 nM | 28.9 nM | 37.3 nM |

| Sequence | apparent KD of MS2 coat protein [1] | apparent KD of MS2 coat protein [2] | apparent KD of MS2 coat protein [3] | apparent KD of MS2 coat protein (input ligand: FMN 200 uM) | apparent KD of MS2 coat protein [4] | apparent KD of MS2 coat protein (input ligand: none) |
| --- | --- | --- | --- | --- | --- | --- |
| ACAUGAGGAUCACCCAUGUGAAAACAAUGGCUGACUUAGAGAUAGGAUAUAUGUGCAUAUCAAACAUAGAAGGGUCAUUACUGG [Deportation 89 - Jieux - Exclusion NG 3] (Eterna round: R96, puzzle: Exclusion NG 3) | – | – | – | 37.9 nM | 34.5 nM | 39.3 nM |
| ACAUGAGGAUCACCCAUGUGAAAACAAUGGCUGACUUUGAGAUAGGAUAUUGGUGCAUAUCAAACCAAGAAGGGUCAUUACUGG [Deportation 92 - Jieux - Exclusion NG 3] (Eterna round: R96, puzzle: Exclusion NG 3) | – | – | – | 37.5 nM | 32.8 nM | 48.2 nM |
| ACAUGAGGAUCACCCAUGUGACCACGAUGGCUGAUGUAGAGCUAGGAUAUGAGUGAAUAUCUAUCUCAGAAGGAGCUUGACUGG [Deportation 49 - Jieux - Exclusion NG 3] (Eterna round: R96, puzzle: Exclusion NG 3) | – | – | – | 25.7 nM | 16.4 nM | 26.2 nM |
| ACAUGAGGAUCACCCAUGUUAUGUUGGGUACUAAAUUAUUCGUAGGAUAUCGAAGCUAGUUUGUGCGAGAAGGACGCAUUUUUU [JR_ExcNG3_Sub058] (Eterna round: R96, puzzle: Exclusion NG 3) | – | – | – | 147 nM | 176 nM | 201 nM |
| ACAUGUAAUGUAGGAUAUUUUACACAUGAGGAUCACCCAUGUGACCGGAGGCUUUACUAUGAGUAAAAGAAGGGUAUGUACAUG [Ex NG2 #61] (Eterna round: R96, puzzle: Exclusion NG 2) | – | – | – | 68.5 nM | 33.1 nM | 45.8 nM |
| ACAUGUCAUCGAGGAUAUUGGACACAUGAGGAUCACCCAUGUACCCGGAGGCUUUACUAUGAGUUCGAGAAGGCGAUGUACAUG [Ex NG2 #73] (Eterna round: R96, puzzle: Exclusion NG 2) | – | – | – | 83.7 nM | 42.4 nM | 54.6 nM |
| ACAUGUCAUCGAGGAUAUUGUACACAUGAGGAUCACCCAUGUACUCGGUUGCUCUAGCAUGAGUUCGAGAAGGCGAUGUACAUU [Ex NG2 #81] (Eterna round: R96, puzzle: Exclusion NG 2) | – | – | – | 178 nM | 28.9 nM | 38.4 nM |
| ACAUGUGUUGUAGGAUAUAGGAUACAUGAGGAUCACCCAUGUGGAUUCAUGUCAAUGGAAACGUCCUAGAAGGACGACAACAUG [Ex NG2 #22] (Eterna round: R96, puzzle: Exclusion NG 2) | – | – | – | 59.5 nM | 42.7 nM | 65 nM |
| ACAUGUUGCGCAGGAUAUGGGACACAUGAGGAUCACCCAUGUGGUUACAUGUCUUACCAAGCGUCCCAGAAGGGUGUGAACAUG [Ex NG2 #32] (Eterna round: R96, puzzle: Exclusion NG 2) | – | – | – | 26 nM | 16.5 nM | 20.3 nM |
| ACAUUCUGAGGAUAUGUGCGCACUGACAUGAGGAUCACCCAUGUCCGAAUGUCCGAGACGACAGAAGGCAGUGAAU [Eternabot (L2) Solution 72] (Eterna round: R97, puzzle: Exclusion 5) | – | – | – | 355 nM | – | 101 nM |
| ACAUUGGUAGUGAGGAUAUCGGUGAGAUAGAAUGACGAGAAGGCACAUGAGGAUCACCCAUGUAAGAUUGGGCA [JR_BMEx4_Sub042] (Eterna round: R97, puzzle: Brourd's mod of Exclusion 4) | – | – | – | 286 nM | – | 251 nM |
| ACCAAGCUAUGCACGUCUGACAUGAGGAUCACCCAUGUAGCCGGUCUCGGAAGGAGACAGGCUCCAGGUGGCUCAGA [Eternabot (Original) Solution 37] (Eterna round: R97, puzzle: Sensor, turn-off variant 1) | – | – | – | 683 nM | – | 667 nM |
| ACCAGCAUACGGAGAUCCAACAUGAGGAUCACCCAUGUCUGGAAAGCUUUUUGCUUGUCUUAUCCUCCUCUGUGUGU [Design #5] (Eterna round: R97, puzzle: Sensor, turn-off variant 1) | – | – | – | 30.2 nM | – | 32.2 nM |
| ACCGCUUCUGCAGGAUAUGGACAACAUGAGGAUCACCCAUGUGAUCUAUAAAGUAGUGGUGGCGUCCAGAAGGGCAGAUUAAGG [Maamabi] (Eterna round: R96, puzzle: Exclusion NG 2) | – | – | – | 197 nM | 48.2 nM | 96.3 nM |
| ACCUCACAUGAGGAUCACCCAUGUCAGGAUAUACAAACCGUGAUAAGACACGGUCGUAGUAGAAGGGACUAUGG [Xerereonte] (puzzle: Exclusion 1) | – | 98.8 nM | – | – | – | – |
